Results from patent publication US20240132589A1 (ONCORESPONSE, published 2024).

What was measured:
LILRB2-Fc protein [1] = biological target: T1, LILRB2-Fc protein (human, UniProt Q8N423 22-460, limits assumed); test: blocking ELISA, LILRB2-Fc binding to coated monomer HLA-G; Exp II
T1 construct: also called human LILRB2-Fc; not shown: Fc part
Experimental: (§1) Tumor-associated HLA-G is an HLA Class I ligand for LILRB2. Binding of HLA-G to LILRB2 induces an immune suppressive signal in LILRB2 expressing myeloid cells. To determine if the anti-LILRB2 antibodies block the HLA-G-LILRB2 interaction and prevent the induction of an inhibitory signal, blocking ELISA assays in a dose titration were performed. 384-well plates were coated with monomer HLA-G (Fred Hutchinson Cancer Research Center, No. bHLA-G) at a concentration of 5 μg/mL, diluted in PBS, then plates were incubated at RT for 1 hour. Plates were rinsed with Wash Buffer three times, then blocked with Blocking Buffer A for 30 minutes at RT. During blocking incubation step, LILRB2-Fc protein and antibody titrations were prepared in Blocking Buffer A. LILRB2-Fc protein was then incubated with antibody titrations for 30 minutes at RT to allow for binding prior to addition onto plate. Plates were rinsed three times with Wash Buffer, then 25 μL of protein/antibody mixture was added per well and incubated for 1 hour at RT. Following antibody incubation, plates were washed three times with Wash Buffer. Anti-human IgG Fc-HRP secondary antibody was diluted and added at 25 μL/well. Plates were incubated in the dark for 1 hour at RT. Following secondary antibody incubation, plates were washed four times with Wash Buffer. 25 μL/well ultra-neat TMB was added per well for development and incubated for 5 minutes at RT. Reaction was stopped using 0.3 M HCl (25 μL/well). Absorbance was read at 450 nm using the Envision. The IC₅₀ for HLA-G blocking by clone B2A-IgG4 was 0.066 μg/mL.
(§2) Select humanized IgG4 variant antibodies were tested for their ability to block binding of human LILRB2-Fc to monomer HLA-G by ELISA, using the method described in Example 7.

[2] = biological target: T2, Human LILRB2 on stably transduced HEK293T cells (human, UniProt Q8N423 22-597); test: flow cytometry, HEK293T cells stably expressing human LILRB2
T2 construct: Lentiviral transduction (G&P Biosciences LTV2992); also called HEK293T-LILRB2; LILRB2-expressing HEK293T cells
Experimental: To confirm binding of LILRB2 antibodies, flow cytometry binding assays were performed using HEK293T cells stably expressing human LILRB2 (Example 3). […] The B2A-IgG1 and B2A-IgG4 chimeras bound the LILRB2-expressing HEK293T cells, with equivalent EC₅₀ values of 0.21 nM and 0.30 nM respectively.
(§3) Select humanized variant antibodies were purified and tested for their ability to bind human LILRB2 by ELISA, using the method described in Example 2, and binding to HEK293T cells expressing human LILRB2, using the method described in Example 4. Representative data are shown for IgG4 variants in Table 6.

[3] = biological target: T3, Recombinant human LILRB2 protein (ELISA antigen) (human, UniProt Q8N423 22-460); test: ELISA, plate-coated recombinant human LILRB2
T3 construct: also called LILRB2-His; recombinant LILRB2
Experimental: (§4) To confirm binding to human and cynomolgus LILRB2, antibodies in supernatants were evaluated for binding by enzyme-linked immunosorbent assay (ELISA). Recombinant LILRB2 proteins (human: SEQ ID NO: 48; cynomolgus) were diluted in PBS to 2 μg/mL and added to 384-well high-binding ELISA plates (Greiner Bio-One Microlon™) at 25 μL/well and incubated at 4° C. overnight. The plates were washed three times with Wash Buffer (0.05% Tween® 20 in PBS), using a microplate washer and then blocked with 90 μL/well of ELISA Blocking Buffer A (1% BSA in PBS) for 1 hour at room temperature (RT). After blocking, 25 μL/well of LILRB2 antibodies or isotype control were added to the plates and incubated for 1 hour at RT. After primary antibody binding, plates were washed three times with Wash Buffer using a microplate washer. Secondary detection antibody (HRP-goat anti-rabbit Fab fragment) was diluted to 1:3000 in assay diluent (1% BSA in PBS) and 25 μL/well was added to plates and incubated at RT protected from light for 1 hour. Following incubation, plates were washed four times with Wash Buffer, using a microplate washer. After removal of the final wash, 25 μL/well of 1-Step™ Ultra TMB-ELISA Substrate Solution (Thermo Fisher, No. 34028) was added and plates were incubated for 5-10 min at RT, protected from light. After development, the reaction was stopped by addition of 25 μL/well of 0.3 M HCl, and plates were read using an EnVision (Perkin Elmer) microplate reader at 450 nm. EC₅₀ values were calculated based on log concentration of the primary antibodies at optical density at 450 nm.
as §3

LILRB2-Fc protein [4] = biological target: T1, LILRB2-Fc protein; test: blocking ELISA, LILRB2-Fc binding to coated monomer HLA-G; Exp I
Experimental: as §1, §2

[5] = biological target: T3, Recombinant human LILRB2 protein (ELISA …); test: ELISA, immobilized LILRB2-His; conditioned media of transient transfections
Experimental: as §4
Twenty-five IgG4 variants were expressed in mammalian cell culture as a combinatorial library of the five light and five heavy chains. In addition, B2A-IgG4 was included as a transfection control. The conditioned media from these transient transfections were assayed for human IgG concentration. A plate-based ELISA (see Example 2) was performed in which LILRB2-His was immobilized, and binding of humanized mAb variants was detected via an anti-human IgG4 HRP-labeled secondary antibody. The parental rabbit/human chimera clone transfection served as the benchmark EC₅₀ positive control.

T3 sequence (Q8N423 other isoform, or with tags, fused parts or gaps limits assumed): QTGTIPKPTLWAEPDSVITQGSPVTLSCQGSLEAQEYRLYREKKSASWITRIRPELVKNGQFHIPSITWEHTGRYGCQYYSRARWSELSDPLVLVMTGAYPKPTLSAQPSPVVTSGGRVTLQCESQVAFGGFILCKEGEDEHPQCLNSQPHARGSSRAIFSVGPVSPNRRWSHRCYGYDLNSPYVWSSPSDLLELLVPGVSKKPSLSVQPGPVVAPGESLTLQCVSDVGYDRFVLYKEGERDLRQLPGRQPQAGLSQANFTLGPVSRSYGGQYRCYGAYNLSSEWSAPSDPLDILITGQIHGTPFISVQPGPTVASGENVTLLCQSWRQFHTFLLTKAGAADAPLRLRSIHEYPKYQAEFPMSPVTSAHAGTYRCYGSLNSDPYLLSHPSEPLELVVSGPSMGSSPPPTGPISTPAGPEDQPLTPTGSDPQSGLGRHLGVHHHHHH
T1 sequence (Q8N423 22-460 limits assumed): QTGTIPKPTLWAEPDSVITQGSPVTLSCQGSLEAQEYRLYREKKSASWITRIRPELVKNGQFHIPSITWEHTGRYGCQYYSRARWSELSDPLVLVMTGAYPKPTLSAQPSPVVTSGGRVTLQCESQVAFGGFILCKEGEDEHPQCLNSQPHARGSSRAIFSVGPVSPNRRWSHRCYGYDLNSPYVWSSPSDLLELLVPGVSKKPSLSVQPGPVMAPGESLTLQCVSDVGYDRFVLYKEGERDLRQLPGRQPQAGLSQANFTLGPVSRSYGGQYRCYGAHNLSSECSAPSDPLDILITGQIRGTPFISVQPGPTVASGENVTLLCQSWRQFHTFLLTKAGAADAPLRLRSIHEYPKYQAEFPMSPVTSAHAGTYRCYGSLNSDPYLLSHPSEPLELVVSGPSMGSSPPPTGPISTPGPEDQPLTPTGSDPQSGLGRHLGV
T2 sequence (Q8N423 other isoform, or with tags, fused parts or gaps limits assumed): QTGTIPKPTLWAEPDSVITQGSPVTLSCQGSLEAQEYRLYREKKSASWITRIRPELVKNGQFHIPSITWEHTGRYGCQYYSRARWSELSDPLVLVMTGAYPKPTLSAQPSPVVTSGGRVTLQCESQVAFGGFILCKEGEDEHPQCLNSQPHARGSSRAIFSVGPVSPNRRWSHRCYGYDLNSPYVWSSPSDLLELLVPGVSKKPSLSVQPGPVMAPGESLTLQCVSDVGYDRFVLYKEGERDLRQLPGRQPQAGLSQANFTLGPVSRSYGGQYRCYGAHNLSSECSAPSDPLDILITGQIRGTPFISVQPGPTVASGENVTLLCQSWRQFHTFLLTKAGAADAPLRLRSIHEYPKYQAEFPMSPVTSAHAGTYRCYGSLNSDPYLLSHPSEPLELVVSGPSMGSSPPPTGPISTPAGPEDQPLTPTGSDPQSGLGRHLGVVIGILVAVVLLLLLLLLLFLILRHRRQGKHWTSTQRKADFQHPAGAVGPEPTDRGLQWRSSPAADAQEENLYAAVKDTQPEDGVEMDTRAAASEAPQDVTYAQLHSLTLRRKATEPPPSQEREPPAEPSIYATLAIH

Binder	IC50 (LILRB2-Fc protein [1])	BMAX [gMFI] [2]	EC50 [2]	EC50 [3]	IC50 (LILRB2-Fc protein [4])	EC50 [5]
B2H4-24 (antibody, V domains shown, Humanized variant, human IgG4 / kappa) VH: EVQLVESGGDLATPGGSLRLSCAVSGFSLSTYAMSWVRQAPGKGLEWVGWIYNDGSTYYAAWAKGRFTISKDTSKTTVYLQMTSLRAEDTALYFCAREGDYIGYFNIWGQGTLVTVSS VL: DIQMTQSPSSVSASVGDRVTITCQASQSIGSNLAWYQQKPGKAPKLLIYAAATLASGVPLRFSGSGSGTDFTLTISNLQPEDSATYYCQSYVSGSSDVAFGGGTKVEIK	7500 ng/mL	10500 gMFI	0.35 ng/mL	2.81 ng/mL	7010 ng/mL	3.23 ng/mL
B2H4-43 (antibody, V domains shown, Humanized variant, human IgG4 / kappa) VH: EVQLLESGGRLVQPGTSLRLSCAVSGFSLSTYAMSWVRQAPGKGLEWIGWIYNDGSTYYAAWAKGRFTISKDTSKTTLYLQMNSLTVEDTATYFCAREGDYIGYFNIWGQGTLVTVSS VL: DIEMTQSPSSVSASVGDRVTLTCQASQSIGSNLAWYQQKPGQAPKLLIYAAATLASGVPSRFKGSGSGTDFTLTISSLQPEDFATYYCQSYVSGSSDVAFGGGTEVVVK	–	–	–	–	–	4.96 ng/mL
B2H4-55 (antibody, V domains shown, Humanized variant, human IgG4 / kappa) VH: EVQLLESGGGLVQPGTSLTLSCAASGFSLSTYAMSWVRQAPGKGLEWIGWIYNDGSTYYAAWAKGRFTISKDTSKTTLYLQITSLRAEDTATYFCAREGDYIGYFNIWGQGTLVTVSS VL: DVVMTQTPSSVSAALGGTVTIKCQASQSIGSNLAWYQLKPGQRPKLLIYAAATLASGGSSRFKGSGSGTDFTLTISSLEPADAATYYCQSYVSGSSDVAFGGGTEVVVK	7170 ng/mL	10800 gMFI	0.33 ng/mL	2.82 ng/mL	6890 ng/mL	–
B2H4-25 (antibody, V domains shown, Humanized variant, human IgG4 / kappa) VH: EVQLVESGGDLATPGGSLRLSCAVSGFSLSTYAMSWVRQAPGKGLEWVGWIYNDGSTYYAAWAKGRFTISKDTSKTTVYLQMTSLRAEDTALYFCAREGDYIGYFNIWGQGTLVTVSS VL: DVVMTQTPSSVSAALGGTVTIKCQASQSIGSNLAWYQLKPGQRPKLLIYAAATLASGGSSRFKGSGSGTDFTLTISSLEPADAATYYCQSYVSGSSDVAFGGGTEVVVK	8290 ng/mL	10200 gMFI	0.35 ng/mL	2.88 ng/mL	7640 ng/mL	4.56 ng/mL

Next, values leading:

IC50 (LILRB2-Fc protein [1])	BMAX [gMFI] [2]	EC50 [2]	EC50 [3]	IC50 (LILRB2-Fc protein [4])	EC50 [5]	Binder
4090 ng/mL	10400 gMFI	0.17 ng/mL	2 ng/mL	4040 ng/mL	2.25 ng/mL	B2H4-54 (antibody, V domains shown, Humanized variant, human IgG4 / kappa) VH: EVQLLESGGGLVQPGTSLTLSCAASGFSLSTYAMSWVRQAPGKGLEWIGWIYNDGSTYYAAWAKGRFTISKDTSKTTLYLQITSLRAEDTATYFCAREGDYIGYFNIWGQGTLVTVSS VL: DIQMTQSPSSVSASVGDRVTITCQASQSIGSNLAWYQQKPGKAPKLLIYAAATLASGVPLRFSGSGSGTDFTLTISNLQPEDSATYYCQSYVSGSSDVAFGGGTKVEIK
–	–	–	–	–	5.37 ng/mL	B2H4-52 (antibody, V domains shown, Humanized variant, human IgG4 / kappa) VH: EVQLLESGGGLVQPGTSLTLSCAASGFSLSTYAMSWVRQAPGKGLEWIGWIYNDGSTYYAAWAKGRFTISKDTSKTTLYLQITSLRAEDTATYFCAREGDYIGYFNIWGQGTLVTVSS VL: DVVMTQSPSSVSASLGDRVTITCQASQSIGSNLAWYQQKPGQAPKLLIYAAATLASGVPSRFKGSGSGTDFTLTITSLQPADFATYYCQSYVSGSSDVAFGGGTKVEIK
7120 ng/mL	10500 gMFI	0.31 ng/mL	2.3 ng/mL	6520 ng/mL	3.61 ng/mL	B2H4-45 (antibody, V domains shown, Humanized variant, human IgG4 / kappa) VH: EVQLLESGGRLVQPGTSLRLSCAVSGFSLSTYAMSWVRQAPGKGLEWIGWIYNDGSTYYAAWAKGRFTISKDTSKTTLYLQMNSLTVEDTATYFCAREGDYIGYFNIWGQGTLVTVSS VL: DVVMTQTPSSVSAALGGTVTIKCQASQSIGSNLAWYQLKPGQRPKLLIYAAATLASGGSSRFKGSGSGTDFTLTISSLEPADAATYYCQSYVSGSSDVAFGGGTEVVVK
